Laboratory results published in US20200045945A1.
“And” between values parts separate entries of the source, which are not always exact repeats. Equal entries are not always repeated. One block for each substance: values may come before it.

Tests used:
[1] = target: CD163 on macrophages of heterozygous pigs 627 and 634 (both the full-length and the ΔSRCR5 protein); assay: cell-based or functional assay
[2] = target: wild type (full-length, unmodified) porcine CD163 (pig) (UniProt Q2VL90); assay: cell-based or functional assay
[3] = target: ΔSRCR5 CD163 (porcine CD163 with the SRCR5 domain deleted) (pig) (UniProt Q2VL90); assay: cell-based or functional assay
[4] = target: CD163 on macrophages of all six pigs 628, 633, 627, 634, 629, 630 (wild type, heterozygous and ΔSRCR5); assay: cell-based or functional assay
[5] = target: CD163 on macrophages of all six pigs 628, 633, 627, 634, 629, 630 (wild type, heterozygous and ΔSRCR5); assay: flow cytometry on PAMs, isotype control staining of the six pigs
[6] = target: CD163 on macrophages of all six pigs 628, 633, 627, 634, 629, 630 (wild type, heterozygous and ΔSRCR5); assay: flow cytometry on PMMs, isotype control staining of the six pigs
[7] = target: ΔSRCR5 CD163 (porcine CD163 with the SRCR5 domain deleted) (pig) (UniProt Q2VL90); assay: flow cytometry on PAMs of pig 629 (ΔSRCR5)
[8] = target: ΔSRCR5 CD163 (porcine CD163 with the SRCR5 domain deleted) (pig) (UniProt Q2VL90); assay: flow cytometry on PAMs of pig 630 (ΔSRCR5)
[9] = target: ΔSRCR5 CD163 (porcine CD163 with the SRCR5 domain deleted) (pig) (UniProt Q2VL90); assay: flow cytometry on PMMs of pig 629 (ΔSRCR5)
[10] = target: ΔSRCR5 CD163 (porcine CD163 with the SRCR5 domain deleted) (pig) (UniProt Q2VL90); assay: flow cytometry on PMMs of pig 630 (ΔSRCR5)
[11] = target: wild type (full-length, unmodified) porcine CD163 (pig) (UniProt Q2VL90); assay: flow cytometry on PAMs of pig 628 (wild type)
[12] = target: wild type (full-length, unmodified) porcine CD163 (pig) (UniProt Q2VL90); assay: flow cytometry on PAMs of pig 633 (wild type)
[13] = target: wild type (full-length, unmodified) porcine CD163 (pig) (UniProt Q2VL90); assay: flow cytometry on PMMs of pig 628 (wild type)
[14] = target: wild type (full-length, unmodified) porcine CD163 (pig) (UniProt Q2VL90); assay: flow cytometry on PMMs of pig 633 (wild type)
[15] = target: CD163 on macrophages of heterozygous pigs 627 and 634 (both the full-length and the ΔSRCR5 protein); assay: flow cytometry on PAMs of pig 627 (heterozygous)
[16] = target: CD163 on macrophages of heterozygous pigs 627 and 634 (both the full-length and the ΔSRCR5 protein); assay: flow cytometry on PAMs of pig 634 (heterozygous)
[17] = target: CD163 on macrophages of heterozygous pigs 627 and 634 (both the full-length and the ΔSRCR5 protein); assay: flow cytometry on PMMs of pig 627 (heterozygous)
[18] = target: CD163 on macrophages of heterozygous pigs 627 and 634 (both the full-length and the ΔSRCR5 protein); assay: flow cytometry on PMMs of pig 634 (heterozygous)

medians of green fluorescence, HbAF488-Hp uptake into PMMs by FACS, animal 627 (heterozygous) [1]: 329
medians of green fluorescence, HbAF488-Hp uptake into PMMs by FACS, animal 634 (heterozygous) [1]: 366
medians of green fluorescence, HbAF488-Hp uptake into PMMs by FACS, animal 628 (wild type) [2]: 329
medians of green fluorescence, HbAF488-Hp uptake into PMMs by FACS, animal 633 (wild type) [2]: 305
medians of green fluorescence, HbAF488-Hp uptake into PMMs by FACS, animal 629 (ΔSRCR5) [3]: 340
medians of green fluorescence, HbAF488-Hp uptake into PMMs by FACS, animal 630 (ΔSRCR5) [3]: 405
Substance: Alexa Fluor 488-labelled hemoglobin-haptoglobin complex (HbAF488-Hp) (from UniProt P69905 2-142; P68871 2-147; P00738 19-406) (ligand)

HO-1 mRNA upregulation in PMMs after 24 h with Hb-Hp, RT-qPCR [4]: 2 fold and 6 fold
Substance: hemoglobin-haptoglobin complex (Hb-Hp) (from UniProt P69905 2-142; P68871 2-147; P00738 19-406) (ligand)

median of fluorescence intensity [5]: 2.13 to 3.84
median of fluorescence intensity [6]: 1.88 to 3.79
Substance: mouse IgG1 or IgG2b negative control (AbD Serotec, MCA928PE, MCA691F, or Sigma, F6397) (antibody)

median of CD163 fluorescence intensity [7]: 17.9
median of CD163 fluorescence intensity [8]: 26.7
median of CD163 fluorescence intensity [9]: 18.8
median of CD163 fluorescence intensity [10]: 17.2
median of CD163 fluorescence intensity [11]: 35.9
median of CD163 fluorescence intensity [12]: 22.7
median of CD163 fluorescence intensity [13]: 23.3
median of CD163 fluorescence intensity [14]: 16.7
median of CD163 fluorescence intensity [15]: 26.4
median of CD163 fluorescence intensity [16]: 24.4
median of CD163 fluorescence intensity [17]: 18.3
median of CD163 fluorescence intensity [18]: 16.5
Substance: mouse anti-pig CD163 antibody, clone 2A10/11 (AbD Serotec, MCA2311PE)
